Assay results as given in publication PMC9751120 (Cell Death and Differentiation, 2022).

T1: ΔNp63α (human, UniProt Q9H3D4-2 1-586)
T1 construct: open, tetrameric; also called DNp63a; source: E. coli, bacterially expressed and purified (IMAC, SEC on Superose 6)
T1 sequence (looked up): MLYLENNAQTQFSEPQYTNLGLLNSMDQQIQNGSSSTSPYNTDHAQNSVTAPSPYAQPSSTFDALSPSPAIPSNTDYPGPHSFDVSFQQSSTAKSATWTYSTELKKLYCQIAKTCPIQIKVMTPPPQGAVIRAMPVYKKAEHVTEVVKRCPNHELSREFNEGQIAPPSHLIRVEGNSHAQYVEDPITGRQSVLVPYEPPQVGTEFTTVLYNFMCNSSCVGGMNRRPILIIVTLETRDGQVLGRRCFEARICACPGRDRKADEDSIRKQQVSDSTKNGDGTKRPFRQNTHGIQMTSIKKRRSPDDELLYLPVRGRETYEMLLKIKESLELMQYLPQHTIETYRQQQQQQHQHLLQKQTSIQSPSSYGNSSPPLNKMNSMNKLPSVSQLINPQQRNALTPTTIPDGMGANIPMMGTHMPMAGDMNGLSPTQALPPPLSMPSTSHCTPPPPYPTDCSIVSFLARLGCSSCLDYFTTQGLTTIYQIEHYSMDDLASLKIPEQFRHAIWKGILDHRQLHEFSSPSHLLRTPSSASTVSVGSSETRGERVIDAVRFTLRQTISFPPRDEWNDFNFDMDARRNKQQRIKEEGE


Experiments:
Details in all cases: both partners purified
p73 DNA-binding domain = molecular target: T2, p73 DNA-binding domain; assay: ITC; target protein titrated into a constant concentration of DARPin, 25 injections of 10 µl; 50 mM HEPES pH 7.4, 150 mM NaCl, 0.5 mM TCEP; 25 °C; AB hetero-association model (SEDPHAT)
T2 construct: also called p73 DBD; source: E. coli BL21(DE3) Rosetta, purified (IMAC, TEV digestion, reverse IMAC, SEC)

p63 DNA-binding domain = molecular target: T3, p63 DNA-binding domain (human); assay: ITC; target protein titrated into a constant concentration of DARPin, 25 injections of 10 µl; 50 mM HEPES pH 7.4, 150 mM NaCl, 0.5 mM TCEP; 10 °C; AB hetero-association model (SEDPHAT)
T3 construct: also called p63 DBD; source: E. coli BL21(DE3) Rosetta, purified (IMAC, TEV digestion, reverse IMAC, SEC)

ΔNp63α = molecular target: T1, ΔNp63α; assay: fluorescence polarisation; fluorescence anisotropy; 500 nM Alexa 488 labeled DARPin constant, p63 isoform 0-10 µM; 50 mM Tris pH 8, 150 mM NaCl, 0.5 mM TCEP, 0.1 % Tween-20; the sheet says 20 °C, the methods 16 °C
TAp63α = molecular target: T4, TAp63α (human); assay: as above
T4 construct: closed, dimeric; also called TAp63a; source: E. coli, bacterially expressed and purified (IMAC, SEC on Superdex 200)

Binder	Ka (p73 DNA-binding domain) [M⁻¹]	Ka (p63 DNA-binding domain) [M⁻¹]	Kd (ΔNp63α) [nM]	Kd (TAp63α) [nM]
DARPin G4 (designed binder, G4 assigned to 7Z7E by elimination: 7Z71 = C14, 7Z72 = A5, 7Z73 = 8F1; 7Z7E is the other p63 DBD-DARPin complex) GSDLGKKLLEAARAGQDDEVRILMANGADVNAADHSGDTPLHLAAMEGHLEIVEVLLKTGADVNAHDLEGYTPLHLAAYHGHLEIVEVLLKAGADVNAWDSYGYTPLHLAAMTGHLEIVEVLLKHGADVNAQDKFGKTPFDLAIDNGNEDIAEVLQKAA	4.48e+06	3.14e+07		
Alexa 488 labeled DARPin G4 (designed binder, Alexa Fluor 488 C5 maleimide on the C-terminal cysteine) GSDLGKKLLEAARAGQDDEVRILMANGADVNAADHSGDTPLHLAAMEGHLEIVEVLLKTGADVNAHDLEGYTPLHLAAYHGHLEIVEVLLKAGADVNAWDSYGYTPLHLAAMTGHLEIVEVLLKHGADVNAQDKFGKTPFDLAIDNGNEDIAEVLQKAA			137	727
